target: acetylcholine receptor; assay: SPR, peptide at 10 uM on immobilized AchR

Row | Binder | Binding affinity (RU)
1 | RIHNRK [6mer-2-1048] | 22 RU
2 | KPEHRR [6mer-2-1028] | 41 RU
3 | RAWERK [6mer-2-1031] | 33 RU
4 | RDKGKK [6mer-2-1043] | 40 RU
5 | KIHWKK [6mer-2-1037] | 26 RU
6 | RPPVKK [6mer-2-1035] | 39 RU
7 | KAKNKR [6mer-2-1036] | 25 RU
8 | KHTDKK [6mer-2-1044] | 41 RU
9 | RAPFKK [6mer-2-1030] | 28 RU
10 | RNSEKR [6mer-2-1046] | 39 RU
11 | RKHMRR [6mer-2-1051] | 24 RU
12 | KKNKKR [6mer-2-1054] | 43 RU
13 | KEEFKK [6mer-2-1029] | 40 RU
14 | RHAHRR [6mer-2-1045] | 41 RU
15 | KYAWRK [6mer-2-1040] | 36 RU
16 | RHDDKR [6mer-2-1047] | 28 RU
17 | KHWERK [6mer-2-1038] | 33 RU
18 | KMSPRR [6mer-2-1049] | 26 RU
19 | KAPARK [6mer-2-1052] | 23 RU
20 | KETVKR [6mer-2-1032] | 31 RU
21 | KKMFRK [6mer-2-1042] | 36 RU
22 | KPPPRK [6mer-2-1050] | 26 RU
23 | RNHFRK [6mer-2-1039] | 26 RU
24 | KHSWRR [6mer-2-1034] | 38 RU
25 | RACDKR [6mer-2-1041] | 22 RU
26 | KEMGKK [6mer-2-1053] | 34 RU
27 | KMDEKK [6mer-2-1033] | 28 RU

The remaining lines, values ahead:

Row | Binding affinity (RU) | Binder
28 | 39 RU | KYSMRR [6mer-2-1095]
29 | 31 RU | KYTERR [6mer-2-1082]
30 | 34 RU | RYCIRR [6mer-2-1076]
31 | 30 RU | KPDFKR [6mer-2-1055]
32 | 39 RU | RCMKRR [6mer-2-1064]
33 | 31 RU | RFDNKR [6mer-2-1091]
34 | 21 RU | KEEMRR [6mer-2-1087]
35 | 35 RU | KTNERK [6mer-2-1060]
36 | 42 RU | RPEIRK [6mer-2-1085]
37 | 31 RU | RHMERK [6mer-2-1075]
38 | 22 RU | RNDERK [6mer-2-1056]
39 | 28 RU | KHPKRR [6mer-2-1098]
40 | 39 RU | RPCEKK [6mer-2-1088]
41 | 29 RU | REKPRK [6mer-2-1084]
42 | 38 RU | KPPIKK [6mer-2-1061]
43 | 40 RU | KCNEKK [6mer-2-1079]
44 | 35 RU | KYNIRK [6mer-2-1062]
45 | 43 RU | KAWERK [6mer-2-1094]
46 | 43 RU | RKTDRR [6mer-2-1089]
47 | 33 RU | KEMHKK [6mer-2-1090]
48 | 25 RU | RKKKKK [6mer-2-1057]
49 | 27 RU | RIANRK [6mer-2-1065]

Row | Binding affinity (RU) | Binder
50 | 21 RU | KNDWRK [6mer-2-1086]
51 | 23 RU | RFWEKK [6mer-2-1097]
52 | 43 RU | KTTDKK [6mer-2-1093]
53 | 34 RU | KMTIKK [6mer-2-1077]
54 | 39 RU | RANVKR [6mer-2-1096]
55 | 29 RU | RDEIRK [6mer-2-1067]
56 | 23 RU | RKHKKK [6mer-2-1080]
57 | 40 RU | KDTFRR [6mer-2-1078]
58 | 24 RU | KYSWRK [6mer-2-1073]
59 | 24 RU | RMPWKK [6mer-2-1058]
60 | 32 RU | KYKMRR [6mer-2-1081]
61 | 35 RU | RFADRR [6mer-2-1059]
62 | 29 RU | KPEHKR [6mer-2-1066]
63 | 25 RU | RTTWRK [6mer-2-1071]
64 | 29 RU | KPHWKR [6mer-2-1072]
65 | 24 RU | RFNVRK [6mer-2-1063]
66 | 31 RU | RPHVRR [6mer-2-1070]
67 | 39 RU | KTKGKR [6mer-2-1083]
68 | 26 RU | RIHVKK [6mer-2-1068]
69 | 21 RU | RAKFRR [6mer-2-1092]
70 | 33 RU | RPMGRK [6mer-2-1074]
71 | 36 RU | KHDMKK [6mer-2-1069]

target: acetylcholine receptor; assay: SPR, AchR immobilized on chip, peptide 10 uM

Row | Binding affinity (RU) | Binder
72 | 64 RU | RVRTR [5mer-150]
73 | 65 RU | KGLYR [5mer-449]
74 | 56 RU | RRRRR [5mer-152]
75 | 66 RU | RVFTK [5mer-151]
76 | 78 RU | RVIQK [5mer-450]
77 | 53 RU | RQVLK [5mer-451]
78 | 80 RU | KQFLR [5mer-149]

Source: patent US20250011363A1, “OPTIMIZED SHORTENED PEPTIDE THAT BINDS TO ACETYLCHOLINE RECEPTOR, AND USE THEREOF” (SKINMED CO., LTD., priority 2021, published 2025)
